PMC6948969, “Regulation of gene expression by the action of a fungal lncRNA on a transactivator”

T1: Xyr1 (Xylanase regulator 1) (Trichoderma reesei, UniProt G0RLE8 1-920)
T1 sequence: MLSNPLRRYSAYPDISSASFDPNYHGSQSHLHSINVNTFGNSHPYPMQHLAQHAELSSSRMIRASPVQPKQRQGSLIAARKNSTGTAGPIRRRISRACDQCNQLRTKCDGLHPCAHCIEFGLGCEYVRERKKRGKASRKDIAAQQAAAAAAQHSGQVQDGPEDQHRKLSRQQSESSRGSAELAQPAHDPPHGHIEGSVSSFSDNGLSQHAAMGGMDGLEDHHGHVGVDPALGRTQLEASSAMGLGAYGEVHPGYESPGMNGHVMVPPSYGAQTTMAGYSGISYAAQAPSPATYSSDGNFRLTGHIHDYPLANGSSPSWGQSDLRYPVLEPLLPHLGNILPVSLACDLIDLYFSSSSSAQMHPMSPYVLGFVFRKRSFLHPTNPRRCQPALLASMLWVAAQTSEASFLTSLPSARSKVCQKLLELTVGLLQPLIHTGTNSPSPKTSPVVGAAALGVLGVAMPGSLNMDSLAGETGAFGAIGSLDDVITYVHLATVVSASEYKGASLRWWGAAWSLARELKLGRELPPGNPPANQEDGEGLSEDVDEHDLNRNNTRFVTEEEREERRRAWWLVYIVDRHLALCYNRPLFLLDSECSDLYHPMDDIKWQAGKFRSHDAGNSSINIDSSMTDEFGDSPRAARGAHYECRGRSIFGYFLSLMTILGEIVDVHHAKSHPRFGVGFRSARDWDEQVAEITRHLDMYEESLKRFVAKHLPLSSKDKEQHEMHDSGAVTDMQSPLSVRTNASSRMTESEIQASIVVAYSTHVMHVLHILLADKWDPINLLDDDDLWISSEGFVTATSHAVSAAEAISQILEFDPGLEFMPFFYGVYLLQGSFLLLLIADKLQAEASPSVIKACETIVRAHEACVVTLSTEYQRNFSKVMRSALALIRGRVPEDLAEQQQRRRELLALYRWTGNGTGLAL

B1: XRE probe (xyr1 promoter) (dsDNA)
DNA 1: CACTGGATACCTACCTAGGTAGTCTGCAGCAGAAG
DNA 2: CTTCTGCTGCAGACTACCTAGGTAGGTATCCAGTG
B2: XBS probe (xyn1 promoter) (dsDNA)
DNA 1: TTGGCAGGCTAAATGCGACATCTTAGCCGGATGCA
DNA 2: TGCATCCGGCTAAGATGTCGCATTTAGCCTGCCAA

Experiments:
[1] = target: T1, Xyr1 (Xylanase regulator 1); assay: circular dichroism; 1.8 or 3.6 uM DNA, 0.5 uM Xyr1; larger loss of ellipticity at 222 nm than XBS; EMSA/RNA-EMSA: 10 mM Tricine, 50 mM NaCl, pH 7.4, 22 C, 10 min; gel 0.5x TBE, 4 C. CD: 50 mM Tris, 200 mM NaCl, 50 mM NaH2PO4, 10% glycerol, pH 7.5, 22 C; details: protein: recombinant; chain copies: 2; blunt
[2] = target: T1, Xyr1 (Xylanase regulator 1); assay: circular dichroism; 1.8 or 3.6 uM DNA, 0.5 uM Xyr1; EMSA/RNA-EMSA: 10 mM Tricine, 50 mM NaCl, pH 7.4, 22 C, 10 min; gel 0.5x TBE, 4 C. CD: 50 mM Tris, 200 mM NaCl, 50 mM NaH2PO4, 10% glycerol, pH 7.5, 22 C; details: protein: recombinant; chain copies: 2; blunt

Binder	binding result [1]	binding result [2]
B1	binds	
B2		binds
